Test results published in patent publication US20250332297A1, “DLL3-SPECIFIC BINDING CONSTRUCTS AND THEIR USE IN RADIOTHERAPY” (MOLECULAR PARTNERS AG, priority 2024, published 2025).

T1: Human DLL3-ECD (Homo sapiens, UniProt Q9NYJ7)
T1 construct: human DLL3 protein (Q9NYJ7, Gene ID: 10683, residues 27 to 466) linked via an Avi-tag; 3C protease recognition site (C); Fc knob into hole (C); purchased Evitria; host or cells: CHO cells
T1 sequence (Q9NYJ7 27-466): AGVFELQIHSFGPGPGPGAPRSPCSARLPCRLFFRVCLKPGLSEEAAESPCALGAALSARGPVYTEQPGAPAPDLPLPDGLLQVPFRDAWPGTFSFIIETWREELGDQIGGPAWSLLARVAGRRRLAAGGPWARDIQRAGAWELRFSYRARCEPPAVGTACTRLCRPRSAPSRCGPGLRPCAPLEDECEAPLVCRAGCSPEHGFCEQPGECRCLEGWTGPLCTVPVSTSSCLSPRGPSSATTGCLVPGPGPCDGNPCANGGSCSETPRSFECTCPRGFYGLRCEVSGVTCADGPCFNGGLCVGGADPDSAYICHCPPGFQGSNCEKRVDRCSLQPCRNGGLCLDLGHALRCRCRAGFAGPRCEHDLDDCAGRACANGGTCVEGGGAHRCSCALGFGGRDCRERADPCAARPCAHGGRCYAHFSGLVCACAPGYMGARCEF

T2: Human DLL3-NTD (Homo sapiens, UniProt Q9NYJ7)
T2 construct: comprising only the N-Terminal Domain (NTD, residues 27-189); 6xHis (C); made in house; host or cells: Expi293F cells
T2 sequence (Q9NYJ7 27-189): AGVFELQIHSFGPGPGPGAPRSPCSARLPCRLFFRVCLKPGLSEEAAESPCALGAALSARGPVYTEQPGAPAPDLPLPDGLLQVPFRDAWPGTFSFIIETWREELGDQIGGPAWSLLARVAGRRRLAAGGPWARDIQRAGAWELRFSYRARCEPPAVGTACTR

B1: MAM279-DOTAM: GS-MAM279-tag (SEQ ID NO: 15) conjugated to the chelator DOTAM via C-terminal tag and maleimide connector, no radionuclide (conjugate)
chain: GSDLGKKLLEAARAGQDDEVRELLKAGADVNAKDYFSHTPLHLAARNGHLKIVEVLLKAGADVNAKDFAGKTPLHLAADAGHLEIVEVLLKAGADVNAQDIFGKTPADIAADAGHEDIAEVLQKAAGSPTPTPTTPTPTPTTPTPTPTGSDLGKKLLAAAAQGQDDEVRELLKAGANVNAKDLFGYTPLHLAAWRGHLEIVEVLLKAGADVNAKDAAGETPLHLAAWFGHLEIVEVLLKAGADVNAQDLQGKTPADLAAKEGHEDIAEVLQKAAGSGSC
modifications: DOTAM chelator via maleimide on C-terminal tag; Ankyrin repeat protein with tag (GS-MAM279-tag)
B2: MAM279: Two domain (2D) ankyrin repeat protein: serum albumin-specific domain (SEQ ID NO: 7), PT linker, DLL3-specific domain of MAM093 (protein)
chain: DLGKKLLEAARAGQDDEVRELLKAGADVNAKDYFSHTPLHLAARNGHLKIVEVLLKAGADVNAKDFAGKTPLHLAADAGHLEIVEVLLKAGADVNAQDIFGKTPADIAADAGHEDIAEVLQKAAGSPTPTPTTPTPTPTTPTPTPTGSDLGKKLLAAAAQGQDDEVRELLKAGANVNAKDLFGYTPLHLAAWRGHLEIVEVLLKAGADVNAKDAAGETPLHLAAWFGHLEIVEVLLKAGADVNAQDLQGKTPADLAAKEGHEDIAEVLQKAA
modifications: Ankyrin repeat protein (MAM279)

How the values were obtained:
Human DLL3-ECD = biological target: T1, Human DLL3-ECD; test: SPR binding to human DLL3-ECD (Example 11); conditions: immobilized biotinylated target, 1:1 Langmuir, Tables 14, 15
Excerpt: Two target formats were chosen: i) the first target protein consisted of the extracellular domain of human DLL3 protein (Q9NYJ7, Gene ID: 10683, residues 27 to 466) linked via an Avi-tag (for site-directed biotinylation), followed by a 3C protease recognition site, to a Fc knob into hole (hDLL3-Avi-Fckih); ii) the second target protein consisted of a very similar design including more residues of the extracellular domain of DLL3 (Q9NYJ7, Gene ID: 10683, res 27-470), directly linked to the Fc knob into hole domain followed by an Avi-tag (hDLL3-Fckih-Avi).
hDLL3-Avi-Fckih was expressed in CHO cells (Chinese hamster ovary cells) by Evitria and purified by a protein A derivative-based affinity chromatography followed by preparative size-exclusion chromatography (SEC). The material was up-concentrated in PBS pH 7.4 to 0.69 mg/ml and in vitro biotinylated using recombinant BirA. The final material was monomeric on size exclusion and stored in PBS pH 7.4 at the final concentration of 0.35 mg/ml.
(§1) The binding of 2D ankyrin repeat protein MAM279 as well as of MAM279 conjugated to the chelator DOTAM (the conjugation was performed as described in Example 3) to different target proteins was analyzed by Surface Plasmon Resonance (SPR). Specifically, the proteins analyzed were (i) MAM279 (SEQ ID NO: 11), with a Glycine-Serine (GS) at its N-terminal end and an N-terminal His-tag (SEQ ID NO: 19); and (ii) MAM279 (SEQ ID NO: 11), with a Glycine-Serine (GS) at its N-terminal end and a tag (SEQ ID NO: 10) at its C-terminal end (resulting in GS-MAM279-tag (SEQ ID NO: 15)), conjugated to the chelator DOTAM as described in Example 3.
(§2) A surface plasmon resonance (SPR) assay was used to determine the binding kinetics of the two proteins (i.e. MAM279 with and without conjugation to chelator) to different targets: the Extra-Cellular Domain (ECD) of human DLL3, the ECD of cynomolgus monkey DLL3, the N-Terminal Domain (NTD) only of human DLL3, and the NTD dog DLL3. The data were generated using BioRad ProteOn instrument in SPR running buffer (PBS, pH 7.4 containing 0.005% Tween 20©). […] The chip was coated with biotinylated target to reach a signal intensity of 1516 RU (human ECD), 257 RU (human NTD), 1500 RU (cyno ECD) and 228 RU (dog NTD). All analytes (various concentrations in 3-fold dilutions ranging from 500-6.17 nM) were injected in succession for 240 s (100 μl/min) and dissociation was recorded for 10800 s (100 μl/min). Each injection was followed by a regeneration step with 16 mM H3PO4 for 18 s. […] The obtained SPR traces were used to determine on-rate and off-rate interaction parameters.

Human DLL3-NTD = biological target: T2, Human DLL3-NTD; test: SPR binding to human DLL3-NTD (Example 11); conditions: immobilized biotinylated target, 1:1 Langmuir, Table 14
Procedure: (§3) The truncated human DLL3 construct, comprising only the N-Terminal Domain (NTD, residues 27-189), was designed with a C-terminal 6×His and Avi-tag. Co-expression was carried in Expi293F cells and purification was performed via Ni-NTA affinity chromatography followed by SEC. The final material was monomeric on size exclusion and stored in PBS pH 7.4 at the final concentration of 0.26 mg/ml.
as §1, §2

Dog DLL3-NTD = test: SPR binding to dog DLL3-NTD (Example 11)
Procedure: as §3, with “dog” for “human”, “designed similarly to the human truncated target protein,” for “designed”, “˜0.1-0.2” for “0.26”
as §1, §2

mouse serum albumin = biological target: T3, mouse serum albumin (Mus musculus, UniProt P07724); test: SPR binding to mouse serum albumin (Example 18); conditions: immobilized MSA, 1:1 Langmuir, Table 21
T3 construct: purchased Sigma-Aldrich
T3 sequence (P07724 25-608): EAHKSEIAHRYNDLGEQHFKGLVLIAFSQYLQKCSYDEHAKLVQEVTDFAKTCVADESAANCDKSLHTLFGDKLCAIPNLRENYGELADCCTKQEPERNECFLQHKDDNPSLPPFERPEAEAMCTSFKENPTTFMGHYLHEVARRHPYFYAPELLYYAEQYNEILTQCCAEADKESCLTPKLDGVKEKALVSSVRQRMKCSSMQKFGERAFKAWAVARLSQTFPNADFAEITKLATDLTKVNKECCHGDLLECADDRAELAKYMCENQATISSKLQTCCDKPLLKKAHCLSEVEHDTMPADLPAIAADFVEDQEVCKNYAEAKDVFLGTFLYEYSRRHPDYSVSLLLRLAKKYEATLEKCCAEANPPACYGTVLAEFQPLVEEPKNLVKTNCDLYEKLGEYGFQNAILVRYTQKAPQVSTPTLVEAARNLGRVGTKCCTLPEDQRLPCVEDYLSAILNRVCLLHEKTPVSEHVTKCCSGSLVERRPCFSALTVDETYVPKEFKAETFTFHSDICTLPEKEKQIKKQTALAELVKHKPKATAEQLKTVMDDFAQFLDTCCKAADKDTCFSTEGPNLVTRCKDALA
Procedure: SPR multi-trace analyses were performed similarly as described in previous Examples. The following ankyrin repeat proteins analyzed: (i) MAM279 (SEQ ID NO: 11) (with a Glycine-Serine (GS) at its N-terminal end); and (ii) MAM279 (SEQ ID NO: 11), with a Glycine-Serine (GS) at its N-terminal end and a tag (SEQ ID NO: 10) at its C-terminal end (resulting in GS-MAM279-tag (SEQ ID NO: 15)), conjugated to the chelator DOTAM as described in Example 3.
All analytes (3-fold dilution ranging from 600-7.41 nM) were injected in succession for 240 s and dissociation was recorded for 600 s using a constant flow of 25 μl/min (HSA) or 100 μl/min (MSA) (25 μl/min). […] The obtained SPR traces were used to determine the DARPin-serum albumin interaction parameters, and results are summarized in Table 21.

[1] = SPR, immobilized biotinylated target, 1:1 Langmuir, Table 15

Molecule | Koff Human DLL3-ECD (Human DLL3-ECD) [s⁻¹] | Kon Human DLL3-ECD (Human DLL3-ECD) [M⁻¹ s⁻¹] | Koff Human DLL3-NTD (Human DLL3-NTD) [s⁻¹] | Kon Human DLL3-NTD (Human DLL3-NTD) [M⁻¹ s⁻¹] | Koff Dog DLL3-NTD (Dog DLL3-NTD; [1]) [s⁻¹] | Kon Dog DLL3-NTD (Dog DLL3-NTD; [1]) [M⁻¹ s⁻¹] | Koff MSA (mouse serum albumin) [s⁻¹] | Kon MSA (mouse serum albumin) [M⁻¹ s⁻¹] | Kd (Human DLL3-ECD) [nM] | Kd (Human DLL3-NTD) [nM] | fold lower affinity for dog DLL3-NTD than for human DLL3-ECD (Dog DLL3-NTD; SPR KD comparison) | Kd (Dog DLL3-NTD; [1]) [nM] | Kd (mouse serum albumin) [nM]
B1 | 1.64e-05 | 67400 | 1.99e-05 | 50400 | 4.86e-05 | 33400 | 0.0425 | 155000 |  |  |  |  | 
B2 | 1.45e-05 | 83500 | 1.54e-05 | 58700 | 5.58e-05 | 46400 | 0.0383 | 267000 | 0.174 | 0.263 | about 10 fold | 1.2 | 144
